From US11332546B2, “Protease inhibitory antibodies and methods of use thereof” (The Regents of The University of California, priority 2019, dated 2022)

Experiments:
cdMMP-12 mutant D4 [1] = biological target: T1, cdMMP-12 mutant D4 (Homo sapiens, UniProt P39900, A167E/A173P/A252Q/H206S/I245T/K233R/M156E/N119Q/N126H/R135E/T215V/V161I/Y113D/Y132K); experiment: FRET peptide inhibition assay, cdMMP-12 D4; assay type: biochemical; details: cdMMP-12 D4, FRET peptide, 31-500 nM Fab
T1 construct: hexahistidine (C); made in house; host or cells: E. coli BL21, pET32b (cytoplasmic, soluble fraction)
T1 sequence (P39900 106-263 Y113D/N119Q/N126H/Y132K/R135E/M156E/V161I/A167E/A173P/H206S/T215V/K233R/I245T/A252Q): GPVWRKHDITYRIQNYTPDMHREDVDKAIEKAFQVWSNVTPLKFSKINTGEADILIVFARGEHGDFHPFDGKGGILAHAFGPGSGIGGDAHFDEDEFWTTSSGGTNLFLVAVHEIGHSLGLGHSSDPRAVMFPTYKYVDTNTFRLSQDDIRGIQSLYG
Protocol: (§1) FRET peptide inhibition assays In 96-well assay plates (Corning), 60/250/350/10/10/30 nM of (cd)MMP-1/-7/-9/-12 D4/-12 wt/-14 were preincubated with 1 nM-1 μM purified Fabs for 30 min at room temperature then 1 μM substrate M-2350 (Bachem) was added. Generated fluorescent signals (λEx=328 nm, λEm=393 nm) were monitored at 37° C. to measure the initial velocities. To calculate inhibition constants (KIs), data were fit with the equations for slow tight-binding inhibitors. The inhibition type of the Fabs was determined using the initial velocities of cdMMP-12 D4 as a function of substrate concentration (250-2000 nM) at various Fab concentrations (31-500 nM). The values of Vmax and Km were derived from linearization in accordance with the Lineweaver-Burk equation.

cdMMP-12 wt [2] = biological target: T2, cdMMP-12 wt (Homo sapiens, UniProt P39900); experiment: FRET peptide inhibition assay, cdMMP-12 wt; assay type: biochemical; details: toward cdMMP-12 wild type; listed as LH6
T2 construct: hexahistidine (C); made in house; host or cells: E. coli BL21 (pET32b, cytoplasmic)
T2 sequence (P39900 106-263): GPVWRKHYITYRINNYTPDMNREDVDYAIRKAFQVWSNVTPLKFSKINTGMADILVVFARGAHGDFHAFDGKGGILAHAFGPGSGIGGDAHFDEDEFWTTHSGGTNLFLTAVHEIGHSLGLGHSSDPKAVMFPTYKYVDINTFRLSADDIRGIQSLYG
Protocol: as §1

cdMMP-12 wt [3] = biological target: T2, cdMMP-12 wt; experiment: Fibronectin proteolysis inhibition, cdMMP-12 wt (western blot); assay type: biochemical
MMP-1 = biological target: T3, MMP-1 (Homo sapiens, UniProt P03956); experiment: FRET peptide inhibition assay, MMP-1; assay type: biochemical; details: listed as LH6
T3 construct: purchased AnaSpec
T3 sequence (P03956 100-469): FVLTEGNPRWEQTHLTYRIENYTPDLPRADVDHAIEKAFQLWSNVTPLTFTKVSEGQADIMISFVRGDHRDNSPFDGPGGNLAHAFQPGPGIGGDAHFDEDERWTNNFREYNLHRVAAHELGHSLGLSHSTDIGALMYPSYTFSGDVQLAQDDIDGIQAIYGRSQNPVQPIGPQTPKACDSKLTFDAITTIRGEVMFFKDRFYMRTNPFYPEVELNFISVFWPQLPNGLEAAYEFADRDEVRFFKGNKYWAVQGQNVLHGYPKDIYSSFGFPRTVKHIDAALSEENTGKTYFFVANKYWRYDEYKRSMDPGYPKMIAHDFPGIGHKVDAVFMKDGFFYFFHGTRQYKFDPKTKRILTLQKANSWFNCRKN
Protocol: as §1

MMP-7 = biological target: T4, MMP-7 (Homo sapiens, UniProt P09237); experiment: FRET peptide inhibition assay, MMP-7; assay type: biochemical; details: listed as LH6
T4 construct: purchased AnaSpec
T4 sequence (P09237 95-267): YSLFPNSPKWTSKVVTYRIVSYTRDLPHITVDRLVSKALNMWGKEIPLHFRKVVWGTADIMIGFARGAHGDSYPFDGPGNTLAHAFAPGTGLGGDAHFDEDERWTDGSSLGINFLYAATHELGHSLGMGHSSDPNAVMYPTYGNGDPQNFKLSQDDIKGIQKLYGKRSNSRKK
Protocol: as §1

cdMMP-9 [4] = experiment: FRET peptide inhibition assay, cdMMP-9 (Example 2); assay type: biochemical
Chain of cdMMP-9 (P14780 with tags, fused parts or gaps DEL216-390 limits assumed): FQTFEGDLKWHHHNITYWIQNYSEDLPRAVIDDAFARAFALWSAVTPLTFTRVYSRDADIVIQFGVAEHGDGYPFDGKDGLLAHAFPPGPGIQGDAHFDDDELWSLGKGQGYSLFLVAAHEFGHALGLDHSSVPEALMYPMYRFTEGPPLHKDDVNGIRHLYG
Protocol: as §1

cdMMP-9 [5] = experiment: Bio-layer interferometry on cdMMP-9; assay type: binding
cdMMP-12 mutant D4 [6] = biological target: T1, cdMMP-12 mutant D4; experiment: Proteolytic stability of Fabs with cdMMP-12 D4; assay type: physicochemical; details: 2 μM Fab, 2 μM cdMMP-12 D4, 4 h, 37° C.
Protocol: (§2) Proteolytic stability tests 2 μM purified Fabs were incubated with 2 μM cdMMP-12 wt/D4 in 50 mM HEPES, 150 mM NaCl pH 7.5 at 37° C. for 4 h. Samples were analyzed by using 12% non-reducing SDS-PAGE and stained with Coomassie blue. Densitometric interpretation was conducted using a ChemiDoc imager (Bio-Rad).

cdMMP-12 wt [7] = biological target: T2, cdMMP-12 wt; experiment: Proteolytic stability of Fabs with cdMMP-12 wt; assay type: physicochemical; details: 2 μM Fab, 2 μM cdMMP-12 wt, 4 h, 37° C.
Protocol: as §2

cdMMP-14 [8] = biological target: T5, cdMMP-14 (Homo sapiens, UniProt P50281); experiment: FRET peptide inhibition assay, cdMMP-14 (Example 2); assay type: biochemical; set-up: human MMP-14 (residue 114-320); hexahistidine (C); made in house; host or cells: E. coli periplasm
Protocol: as §1

cdMMP-14 [9] = biological target: T5, cdMMP-14; experiment: Bio-layer interferometry on cdMMP-14; assay type: binding; set-up: human MMP-14 (residue 114-320); hexahistidine (C); made in house; host or cells: E. coli periplasm

B1: Fab LH6: anti-MMP-12 antibody clone; VL SEQ ID NO:118, VH SEQ ID NO:120, CDR-H3 SEQ ID NO:123 (antibody, V domains shown)
VH: EVQLVESGGGLVQPGGSLRLSCAASGFNLSYSYMHWVRQAPGKGLEWVASIYPSYGSTYYADSVKGRFTISADTSKNTAYLQMNSLRAEDTAVYYCARDLEESLPKRARTAVSKELESVPYVMDYWGQGTLVTVSSAS
VL: DIQMTQSPSSLSASVGDRVTITCRASQSVSSAVAWYQQKPGKAPKLLIYSASSLYSGVPSRFSGSRSGTDFTLTISSLQPEDFATYYCQQSSHYASPPITFGQGTKVEIKR
- Type of inhibition (Lineweaver-Burk) (cdMMP-12 mutant D4 [1]): substrate competitive manner
- Inhibition FRET peptide (cdMMP-12 wt [2]): non-
- Fibronectin remaining after cdMMP-12 wt hydrolysis (cdMMP-12 wt [3]; 6 μM Fab, 350 nM wt cdMMP-12, 200 nM fibronectin, 37° C.): significant amounts of fibronectin remained
- Inhibition Fibronectin IC50 (cdMMP-12 wt [3]; toward cdMMP-12 wild type, 200 nM enzyme, 200 nM fibronectin): Inhib.
- Inhibition of MMP-1 (selectivity) (MMP-1): did not inhibit and non-
- Inhibition of MMP-7 (selectivity) (MMP-7): did not inhibit and non-
- K1 fold, cdMMP-9 compared with cdMMP-12 mutant D4 (cdMMP-9 [4]): (16-fold)
- Ki (cdMMP-9 [4]; FRET peptide, read-out: K1 toward cdMMP-9): 1500 nM
- KD fold, cdMMP-9 compared with cdMMP-12 wt (cdMMP-9 [5]): (2.2-fold),
- Kd (cdMMP-9 [5]; read-out: KD toward cdMMP-9): 950 nM
- Degradation of Fab by cdMMP-12 D4 (cdMMP-12 mutant D4 [6]): no significant degradation
- Fab remained intact after exposure to cdMMP-12 wt (cdMMP-12 wt [7]): 56%
- K1 fold, cdMMP-14 compared with cdMMP-12 mutant D4 (cdMMP-14 [8]): (52-fold)
- KD fold, cdMMP-14 compared with cdMMP-12 wt (cdMMP-14 [9]): (1.1-fold),
